The values that follow come from PMC6391921.

The assay deals with full-length H7 HA trimer (influenza A virus (H7)). Description: BLI. Background: BLI is a label-free optical method that tracks binding on a fibre tip over time.

The term Kd denotes a measure of binding affinity in units of concentration. High values mean a looser complex, low ones a tighter complex. As usually defined, the koff is a measure of how fast the partners let go of each other. The kon is a measure of how fast the partners come together.

The substance CT149 Fab gave a Kd of 3.7 nM, a koff of 0.0031 s⁻¹ and a kon of 360000 M⁻¹ s⁻¹.
